From patent US20220380442A1 (published 2022)

B1: SNV-21 (antibody, V domains shown)
VH: QVQLVESGGGVVQPGRALRLSCAASGFTFSSYGMHWVRQAPGKGLEWVAVVWNDGGNKYYADSVKGRFTISRDNSKNTLYLQMNSLRAEDTAVYFCARDGYYVSSGYHPLRYYYYYMDVWGKGTTVAVSS
VL: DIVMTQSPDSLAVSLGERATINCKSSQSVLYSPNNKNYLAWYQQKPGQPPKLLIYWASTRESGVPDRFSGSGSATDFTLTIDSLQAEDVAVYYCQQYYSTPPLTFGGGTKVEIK
B2: SNV-56 (antibody, V domains shown)
VH: EVQLVESGGRLVRPGGSLRLSCAASGFTFSHYNMNWVRQAPGKGLEWVSSINSRNGYTYYADSVKGRFTISRDNAKNSLYLQMNSLRPEDTAVYYCARDPPLYSGYDLGYYYYGMDVWGQGTTVTVSS
VL: DIQMTQSPSTLSAFVGDRVTITCRANQNISKWLAWYQQKPGKAPNLLIHKASSLESGVPSRFSGSGSGTEFTLTISSLQPDDFATYSCQQYNSYPWAFGQGTRVEIK
B3: SNV-45 (antibody, V domains shown)
VH: ELQLVESGGGLIRPGGSLRLSCTAAGFTFSNYNMNWVRQAPGKGLDWVSYISSSGGTTIYADSVKGRFTISRDNAKDSLYLQMNSLRDDDTAIYYCVRGRGQLATHFDYWGQGTLVTVSS
VL: ESVLTQFPDFQSVTPKEKVTITCRASQSIHINLHWYQQKPHQSPKLLIKYASQSIAGVPSRFSGSGSGTEFTLTINGLEAEDAATYYCHQSNSLPWTFGQGTKVEIK
B4: SNV-53 (antibody, V domains shown)
VH: EVQLVQSGAEVKTPGESLKISCKGSGYRFYTYWIAWVRQMPGKGLEWMGIIYPGDSDPRYSPSFQGQVTISADKSISTAYLQWSSLKASDTAMYYCVRVQGTMLDYWGQGTLVTVSS
VL: QSVLTQPPSVSGAPGQSVTISCSGSSSNIGAGYDVHWYQQLLGRAPKLLIHGNSNRPSGVPDRFSGSKSGTSGSLAITGLQSEDEADYYCQSYDISLSGWVFGGGTKLTVL
B5: SNV-62 (antibody, V domains shown)
VH: QVLLVQSGAEVKKPGASVKVSCKASGYTFTSYFIHWVRQAPGQGLEWMGMINPISGNTNYAQKFQGRVTMTRDTSTRTVYMQLSSLTFEDTAVYSCVRWTTVPSSFDFWGQGTLVTVSS
VL: SYELTQPPSVSVSPGQTARITCSGDALPNQYVNWYQQKPGQAPVLMMFKDNQRPSGIPERFSGSRSGTTVTLSISGVQAEDEADYHCQSADRTATSVAFGGGTKLTVL
B6: SNV-39 (antibody, V domains shown)
VH: QEQLEESGGGVVQPGRSLTLSCAASGFTFRSYDMHWVRQAPGKGLEWVALISYDGRNKHYGDSVKGRFTISRDNSKNTLYLHLSSLRAEDTSVYYCARGADNGLFTDSWGQGTLVIVSS
VL: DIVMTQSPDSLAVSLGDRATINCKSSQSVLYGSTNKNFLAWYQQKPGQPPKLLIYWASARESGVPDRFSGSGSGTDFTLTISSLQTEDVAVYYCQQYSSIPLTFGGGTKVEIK
B7: SNV-24 (antibody, V domains shown)
VH: EVQLLESGGGLIQSGGSLRLSCVVSGIDFSNYAMTWVRHAPGKGLEWISTISGSGDTTNYADSAKGRFTISRDNSRNTLFVRINSLRAEDTAIYYCAKTMGPVSGQYAFDIWGQGTKVTVSS
VL: SYELTQPPSVSVSPGQTATITCSGDNLGNKFASWYQQKPGLSPVLVIYQDKKRPSGIPERFSGSNSGNTATLTISGTQAMDEADYFCQAWHSGSVFGGGTKLTVL
B8: SNV-65 (antibody, V domains shown)
VH: QVQLQESGPGLVKPSQTLSLTCTVSGGSISSGGYFWSWIRQHPGKGLEWIGYIYYSGSTYYNPSLKSRVTISIDTSKIQFSLKLTSVTAADTAVYYCARDVGGFDIWGQGTMVTVSS
VL: DIQMTQSPSSLSASIGDRVTITCQASQDINKYLNWYQQKPGKAPKVLIYDASNLETGVPSRFSGSGSGTDFTFTISSLQPEDVATYYCQQYENLPRTFGQGTKVEIK
B9: SNV-57 (antibody, V domains shown)
VH: QVQLVESGGGVVQPGRSLRLSCAASGFTFSSYAMHWVRQAPGKGLEWVALISLDGFNTYYPDSVKGRFTISRDSSKNTLFLQLNSLRIEDTAVYYCVKDRGPTGSGSYGMDVWGQGTTVTVSS
VL: SYELTQPPSVSVSPGQTASITCSGDKLGNKFACWYQQKPGQSPVLVIHQDKKRPSGIPERFSGSNSGNTATLTISGTQAVDEADYYCQAWDSSNVVFGGGTKLTVL
B10: SNV-68 (antibody, V domains shown)
VH: QVQLQESGPGLVKPSGTLSLTCLVSGGSIGSSHWWSWVRQSPGKGLEWFGEIHHTESTNYNPSLKSRVTITMDKSKNQFYLKLTSVTAADTAVYYCARAGATFAEPFSLWGQGTMVTVSP
VL: DIQMTQSPSTLSASVGDRVTITCRAGQSVTNWLAWYQQKPGKAPKLLIYKASILASGVPSRFSGSGSGTEFTLTISSVQPDDSAVYYCQQYKSHRTFGQGTKVEIK
B11: SNV-42 (antibody, V domains shown)
VH: EVQLVESGGGLVQPGGSLRLSCAASGFTFSTYEMNWVRQAPGKGLEWISYIRSSGSTVYYADSVKGRFTISRDNAKNLLYLQMNSLRAGDTAVYYCARIPGGYTGYFDYWGQGALVTVSS
VL: QSVLTQPPSVSGAPGQRVTISCTGSSSNIGAGYYVHWYQQLPGTVPKLLIYGNNNRPSGVPDRFSGSKSGTSASLAITGLQTEDEADYYCQSYDSSLSGWVFGGGTKLTVL
B12: SNV-32 (antibody, V domains shown)
VH: QVQLVQSGAEVKKPGSSVKVSCRASGGTFRSYSISWVRQAPGQGLEWMGDIIPIFSTTNYAQKFQGRVTITADEATSTAYMELSSLRSDDTAVYYCARPSNLLNWFDPWGQGTLVTVSS
VL: EIVMTQSPATLSVSPGERATLSCRASQSVNSNLVWYQQKPGQAPRLLIYGASTRATGIPARISGSGSGTEFTLTISSLQSEDFAVYYCQQYDNRPQTFGQGTKVEIK
B13: SNV-36 (antibody, V domains shown)
VH: QVQLVESGGGVVQPGRSLRLSCAASGFRFSSYAMHWVRQAPGKGLEWVATIWFDGTNEYYGDSAKGRFTISRDNSMSTLYLQMNSLRVEDTAVYYCARPANGYSDYYYGMDVWGQGTTVTVSS
VL: QSALTQPASVSGSPGQSITISCTGTSSDVGTYNLVSWYQQHPGKAPKLMIFEVNKRPSGVSYRFSGSKSGNTASLTISGLQAEDEADYYCCSYADNRTPFLFGTGTKVTVLG
B14: SNV-66 (antibody, V domains shown)
VH: QVRLVESGGGVVQPGRSLRLSCAASGFTFRSYGMHWVRQAPGKGLEWVALISLDGSEKHYADSVKGRLTISRDNSKNMLYLQMNNLRVEDTAVYYCAKDRPYSWRDVLDYWGQGTLVTVSS
VL: DIQMTQSPSSLSASVGDRVTITCRASRDIHTSLNWYQHTPGKAPELLIYAASTLEMGVPSRFSGSGSGTDFTFTISSLQPEDIATYYCQQYDELPLTFGGGTKVEMK
B15: SNV-3 (antibody, V domains shown)
VH: QVQLQQSGPGLVKPSQTLSLTCAISGDSVSSNSAAWNWIRQSPSRGLEWLGRTYYRSKWYNDYAVSVKSRITINPDTSKNQFSLQMNSVTPEDTAVYYCARDRRKLEPPPFSYYYYGLDVWGQGTTVTVSS
VL: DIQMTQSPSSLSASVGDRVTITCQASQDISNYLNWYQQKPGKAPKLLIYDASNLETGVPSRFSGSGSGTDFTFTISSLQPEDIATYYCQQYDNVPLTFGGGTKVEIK
B16: SNV-25 (antibody, V domains shown)
VH: QVQLQESGPGLVKPSGTLSLTCAVSGGSISSSNWWSWVRQPPGKGLEWIGEIYHSGSTNYNPSLKSRATISVDKSKNQFSLKLSSVTAADTAFYYCARARGEWLAHFDYWGQGTLVTVSS
VL: DIQMTQSPSTLSASVGDRVTITCRASQSISRWLAWYQQKPGKAPKLLIYKASSLESGVPSRFSGSGSGTEFTLTISSLQPDDFAIYYCQQYNTDKTFGQGTKVEIK
B17: SNV-50 (antibody, V domains shown)
VH: EMQLLESGGGLIQPGESLRLSCAGSGFTFRNYAMSWVRQAPGKGLQWVSAISASGGITHYADSVKGRFTISRDNSKNTLFLQMNSLRAEDTAVYYCAKGEIMRDTGYHDDAFDVWGQGKMVTVSS
VL: DIQLTQSPSFLSASVGDRVTITCRASQGISSYLVWYQQKPGEAPKLLIYTASTLQSGVPSRFSGSGSGTEFTLTISSLQPEDFATYHCQQVESYPYSFGQGTKLEIK
B18: SNV-30 (antibody, V domains shown)
VH: QLQLQESGSRLVKSSETLSLTCAVSGGAITSGRNTWSWIRQPPGKGLEWIGFIYYSGSTYSNPITYSSPSLKSRVTISLDTSKNQFSLKLNSVTAADTAVYYCARAKPSNLNFYYYGMDVWGQGTTVTVSS
VL: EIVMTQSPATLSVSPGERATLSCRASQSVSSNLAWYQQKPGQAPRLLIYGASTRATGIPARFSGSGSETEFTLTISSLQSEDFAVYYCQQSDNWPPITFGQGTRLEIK
B19: SNV-67 (antibody, V domains shown)
VH: QVQLVQSGAEVKKPGASVRVSCKASGYTFTAYFMNWVRQAPGQGLEWMGRINPISGDTNFAQNFQGRVTMTRDTSITTVYMELNRLTSDDTAVYYCARVRSGYSYIDFWGQGTLVTVAS
VL: SYDLTQPPSVSVSPGQTARITCSGDALSNQYAYWYQQRPGQAPVVVIYKYSERPSGIPERFSGSSSGTTVTLTISGVQAEDEADYYCQSADRLGTYWVFGGGTKLTVL
B20: SNV-27 (antibody, V domains shown)
VH: QVQLVQSGAEVKKPGASVRVSCKAYGYSFNDYFMHWVRQAPGQGLEWMGRVKPSTGGTRYAQKFQGRVTMTLDTSTSTAYVELSSLSSDDTAVYFCARKLGPLGDCSSSSCYSALDVWGQGTMVTVSS
VL: DIQMTQSPSTLSASVGDRVTITCRASESISNWLAWYQQKPGKAPKLLISKASSLESGVPSRFSGSGSGTEFTLTIGSLQPDDFATYYCQQYNTYSWTFGQGTKVDIK
B21: ANDV-54 (antibody, V domains shown)
VH: EVQLVESGGGVVQPGRSLRLSCAASGFTFSPYGMHWVRQAPGKGLEWVAVVWYDGNNKYYADSVKGRFTISRDNSKNTLYLQMNSLRAEDTAVYYCARENTPTYNSGYYFDYWGQGTLVTVSS
VL: QSALTQPASVSGSPGQSITISCTGTSSDVGSYDLVSWYQQHPGKAPKLIIYEGSKRPSGVSNRFSGSKSGNTASLTISGLQAEDEADYYCCSYAGSSTWVFGGGTKVTVL
B22: ANDV-44 (antibody, V domains shown)
VH: QVQLVQSGAEVRKPGASVKVSCKASGYTFTSNGVSWVRQAPGQGLEWMGWIAGYDGYTNYTQKFQGRVTMTTDTSTTTVYMELRSLRFDDTAVYYCARDEGLHNWKFNAMDVWGQGTTVIVSS
VL: EIVLTQSPGTLSLSPGERATLSCRASQSVSSSYLAWYQQKPGQAPRLLMSETSRRATGIPDRFSGSVSGTDFILTINRVDPEDFAVYYCQQYSSPPWTFGQGTKVEIK
B23: ANDV-12 (antibody, V domains shown)
VH: EVQLVESGGGLVQPGGSLRLSCAASGFAFSSYWMTWVRQAPGKGLEFVANIKYDASEKYYVDSVKGRFTISRDNGRNSFYLQMNSLRAEDTAVYYCAVPGPGYSFAYDYWGQGTQVTVSS
VL: DIQMTQSPSSLSASVGDRITITCRASQSVGTYLNWYQQKPGKAPKLLIYEASSLQSGVPSRFSGSGSGTDFTLTISRLQPEDFATYSCQQSDIPPWTFGQGTKVEIK

Target: T1, Sin Nombre virus (SNV) glycoproteins Gn and Gc displayed on the surface of Expi293F cells transfected with … (Sin Nombre virus)
Experiment: flow

**Q.** For B1, which EC50 is on record?
**A.** Its EC50 is 20 ng/mL.

**Q.** B2 was tested. Which EC50 did it give?
**A.** The EC50 was 66 ng/mL.

**Q.** With B3 as the binder, how does the EC50 read?
**A.** Its EC50 is 9.9 ng/mL.

**Q.** How did the EC50 turn out when B4 was run?
**A.** Its EC50 is 3.5 ng/mL.

**Q.** Which EC50 does the source give for B5 here?
**A.** Its EC50 is 2.6 ng/mL.

**Q.** With B6 as the binder, how does the EC50 read?
**A.** Its EC50 is 14 ng/mL.

**Q.** Which EC50 does the source give for B7 here?
**A.** The EC50 was 7.2 ng/mL.

**Q.** How did the EC50 turn out when B8 was run?
**A.** The EC50 was 3.4 ng/mL.

**Q.** B9 was tested. Which EC50 did it give?
**A.** The EC50 was 6 ng/mL.

**Q.** Which EC50 does the source give for B10 here?
**A.** Its EC50 is 6.5 ng/mL.

**Q.** For B11, which EC50 is on record?
**A.** The EC50 was 5.9 ng/mL.

**Q.** With B12 as the binder, how does the EC50 read?
**A.** The EC50 was 14 ng/mL.

**Q.** How did the EC50 turn out when B13 was run?
**A.** Its EC50 is 10 ng/mL.

**Q.** How did the EC50 turn out when B14 was run?
**A.** The EC50 was 7.7 ng/mL.

**Q.** With B15 as the binder, how does the EC50 read?
**A.** The EC50 was 5.6 ng/mL.

**Q.** For B16, which EC50 is on record?
**A.** The EC50 was 7.2 ng/mL.

**Q.** With B17 as the binder, how does the EC50 read?
**A.** Its EC50 is 5.2 ng/mL.

**Q.** B18 was tested. Which EC50 did it give?
**A.** The EC50 was 5.5 ng/mL.

**Q.** How did the EC50 turn out when B19 was run?
**A.** Its EC50 is 15 ng/mL.

**Q.** How did the EC50 turn out when B20 was run?
**A.** Its EC50 is 11 ng/mL.

Target: T1, Sin Nombre virus (SNV) glycoproteins Gn …
Experiment: flow
Remark: another data set of the same source

**Q.** How did the EC50 turn out when B21 was run?
**A.** The EC50 was 3.67 µg/mL.

**Q.** For B22, which EC50 is on record?
**A.** Its EC50 is 1.09 µg/mL.

**Q.** For B23, which EC50 is on record?
**A.** The EC50 was 0.016 µg/mL.
